The values below come from publication PMC4286497.

The subject of the series is Nc1ncnc2c1ncn2[C@@H]1O[C@H](COP(=O)(O)OP(=O)(O)OP(=O)(O)O)[C@@H](O)[C@H]1O. As to the kind of experiment: purified protein.
[1] abbreviates: saturating taxol-stabilized MTs, no ATPγS, pH 7.2, 2 mM MgCl2.

As for “WT dynein (GST-Dyn1_331kD) (Saccharomyces cerevisiae S288C; K2424A)”, the Michaelis-Menten constant (Km) (pH 7.2) was 38 ± 3 µM.

Consider “WT dynein (GST-Dyn1_331kD) (Saccharomyces cerevisiae S288C)”, for which, under setting [1], the Michaelis constant (Km) is 46 ± 5 µM and the kcat stood at 17.0 ± 0.5 s⁻¹.

The term Km denotes the substrate concentration at which the rate is half of its maximum. As a reminder, the kcat is the number of substrate molecules converted per active site and unit of time at saturation.
